For this data set the following is noted: glycan lost.
For ACE2: N690Q, the “other: support of viral entry, other: percent increase over WT” value (“other: support … percent increase over WT” for short) is “no change”.

As to ACE2: N103Q, the “other: support … percent increase over WT” value is “no change”.

As to ACE2: N432Q, the “other: support … percent increase over WT” value is given as “no change”.

As to ACE2: N90Q, the other: support of viral entry, other: percent increase over WT came out at 60% and the “other: viral replication” value is reported as “increases”.

Regarding ACE2: N322Q, the “other: support … percent increase over WT” value is “no change”.

With ACE2: N53Q, the “other: support … percent increase over WT” value was “no change”.

ACE2: N546Q: the other: support of viral entry, other: percent increase over WT was 68% and the “other: viral replication” value is listed as “no change”.
